Experimental data reported in patent US20210267930A1, “MODIFIED ANTIBODY-ALBUMIN NANOPARTICLE COMPLEXES FOR CANCER TREATMENT” (Mayo Foundation for Medical Education and Research, priority 2016, published 2021).

Assays:
[1] = target: CD20 (membrane bound, on Daudi cells) (human) (UniProt P11836); assay: blocking assay by flow cytometry: Daudi cells pre-treated with ABX, washed, stained with PE-mouse anti-human CD20
[2] = target: CD20 (membrane bound, on Daudi cells) (human) (UniProt P11836); assay: blocking assay by flow cytometry: Daudi cells pre-treated with ABX, then stained with labelled anti-human CD20
[3] = target: CD20 (membrane bound, on Daudi cells) (human) (UniProt P11836); assay: blocking assay by flow cytometry: Daudi cells pre-treated with AR160, washed, stained with PE-mouse anti-human CD20 (the blocked antibody)
[4] = target: CD20 (membrane bound, on Daudi cells) (human) (UniProt P11836); assay: flow cytometry, Daudi cells stained with Alexa-fluor 488 AR160 alone (middle panel, upper right quadrant)
[5] = target: CD20 (membrane bound, on Daudi cells) (human) (UniProt P11836); assay: blocking assay by flow cytometry: Daudi cells pre-treated with pharmacy-made AR160 batch 1, then stained with labelled anti-human CD20 (the blocked antibody)
[6] = target: CD20 (membrane bound, on Daudi cells) (human) (UniProt P11836); assay: flow cytometry, Daudi cells stained with Alexa-fluor 488 AR160 and PE anti-human CD19 (right panel, upper right quadrant)
[7] = target: CD20 (membrane bound, on Daudi cells) (human) (UniProt P11836); assay: blocking assay by flow cytometry: Daudi cells pre-treated with lab-made AR160, then stained with labelled anti-human CD20 (the blocked antibody)
[8] = target: CD20 (membrane bound, on Daudi cells) (human) (UniProt P11836); assay: flow cytometry on Daudi cells, ABX labelled with Alexa fluor 488
[9] = target: CD20 (membrane bound, on Daudi cells) (human) (UniProt P11836); assay: flow cytometry, Daudi cells stained with Alexa-fluor 488 AR160 and PE anti-human CD19 (right panel, upper left quadrant)
[10] = test system: antibody complexation with ABX (bevacizumab); assay: Peptide competition assay on nanoparticle formation with bevacizumab; conditions: 10-fold molar excess of peptide
Method: Peptides were added at a 10-fold molar excess compared to antibody. Diameter was measured using a Malvern Nanosizer at a 1:200 dilution.
A similar experiment was performed using bevacizumab (FIG. 14B).

[11] = test system: rituximab, trastuzumab, bevacizumab, and muromonab; assay: Biacore surface plasmon resonance, albumin peptide library against antibodies; format: binding; conditions: peptides at 50-1.25 μg/mL in HBS running buffer
Method: (§1) An albumin peptide library was constructed with 18 amino acid peptides, each containing a 6 amino acid overlap, and each albumin peptide was run against rituximab fixed on a CMS chip. Peptides were suspended to 5-10 mg/mL in HBS-EP plus running buffer. Water insoluble peptides were dissolved in 10% DMSO (Sigma-Aldrich, St. Louis, Mo.). Rituximab was immobilized onto Biacore CMS (GE Healthcare, Chicago, Ill.) chips via amine coupling. Biacore X-100 (GE Healthcare, Chicago, Ill.) was used to screen the albumin peptide libraries over immobilized rituximab. Peptides were screened from 1-50 μg/mL with an exposure time of 120 seconds. Biacore X100 software was used to determine binding kinetics.
Peptides were run at 50, 25, 10, 5, 2.5, 1.25 μg/mL in HBS running buffer. Dissociation constants were determined by Biacore Evaluation Software. […] Diana, F. J., Veronich, K. & Kapoor, A. L. Binding of nonsteroidal anti-inflammatory agents and their effect on binding of racemic warfarin and its enantiomers to human serum albumin. J Pharm Sci 78, 195-199 (1989); Sudlow, G., Birkett, D. J. & Wade, D. N. The characterization of two specific drug binding sites on human serum albumin. Mol Pharmacol 11, 824-832 (1975).

[12] = target: T1, ABRAXANE® (ABX) (Homo sapiens, UniProt P02768); assay: Binding of antibody to ABX, dissociation constant
T1 construct: purchased Celgene, Summit, N.J

[13] = target: CD20 (membrane bound, on Daudi cells) (human) (UniProt P11836); assay: flow cytometry on Daudi cells (negative control)
[14] = target: CD20 (membrane bound, on Daudi cells) (human) (UniProt P11836); assay: flow cytometry of Daudi cells, isotype control (negative control)
[15] = target: HSA peptide 40 (Homo sapiens, UniProt P02768); assay: Biacore surface plasmon resonance, antibody binding to HSA peptide 40
Method: as §1
(§2) The sequence of the variable region of the heavy chain where the binding site is located is provided in FIG. 13F for both bevacizumab (SEQ ID NO.: 1) and rituximab (SEQ ID NO.: 2). The 19-AA region of interest is underlined for bevacizumab (SEQ ID NO.: 8—[…]) and rituximab (SEQ ID NO.: 10—[…]), and share about 80% identity. FIG. 13G provides the sequences from each antibody that bind HSA.

[16] = target: T2, HSA peptide 4 (Homo sapiens, UniProt P02768); assay: Biacore surface plasmon resonance, antibody binding to HSA peptide 4
T2 construct: An albumin peptide library was constructed with 18 amino acid peptides
Method: as §1, §2

[17] = target: full HSA protein (Homo sapiens, UniProt P02768); assay: Biacore surface plasmon resonance, antibody peptide binding to HSA
Source text: FIG. 13B represents binding of bevacizumab variable peptide 1 (SEQ ID NO.: 7) to HSA.
as §2

[18] = test system: CD20+ Daudi cells; assay: In vitro toxicity assay, EdU proliferation of Daudi cells; format: cell-based, human; conditions: rituximab 0-200 μg/mL overnight
Method: The level of proliferation was determined by staining cells with FITC labeled anti-EdU. The proliferation index was calculated by normalization to the untreated positive control.
Cell proliferation was measured with EdU, a thymidine analog, that was detected with a FITC conjugated anti-EdU and enumerated by flow cytometry.
The human B-cell lymphoma line, Daudi, (ATCC Manassa, Va.) were cultured in RPMI with 1% penicillin, streptomycin and glutamine (PSG) and 10% FBS. Cells were harvested and plated at 0.2×10^6 cells per well in 24 well plates. […] To measure proliferation, the Click-iT EdU (Molecular Probes, Eugene, Oreg.) kit was utilized. […] The cells were permeabilized with 1% saponin and intercalated EdU was labeled with a FITC-conjugated antibody. The proliferation index was determined by dividing the FITC positive cells from each treatment by the maximum proliferation of untreated EdU labeled cells.

[19] = test system: Daudi human lymphoma cells; assay: Daudi human lymphoma xenograft tumor efficacy; format: in vivo, athymic nude mice; conditions: intravenous
Method: To test tumor efficacy, 5×10^6 Daudi human lymphoma cells were implanted into the right flank of athymic nude mice (Harlan Sprague Dawley, Indianapolis, Ind.). […] Tumor size was monitored 2-3 times/week and tumor volume was calculated with the following equation: (length*width^2)/2. Mice were sacrificed when the tumor size equaled 10% of the mouse body weight, or about 2500 mm^3. The day 10 percent change from baseline was calculated as follows: [(tumor size on treatment day-tumor size on day 10)/tumor size on treatment day]*100. Kaplan Meier curves were generated and median survival was calculated using GraphPad Prism software (GraphPad Software, Inc, La Jolla, Calif.).

[20] = target: T3, CD20 (Homo sapiens, UniProt P11836); assay: Blocking of PE-mouse anti-human CD20 binding to CD20+ Daudi cells (flow cytometry); format: cell-based; conditions: Daudi cells pre-incubated with test article
T3 construct: host or cells: Daudi
T3 sequence (P11836 1-297): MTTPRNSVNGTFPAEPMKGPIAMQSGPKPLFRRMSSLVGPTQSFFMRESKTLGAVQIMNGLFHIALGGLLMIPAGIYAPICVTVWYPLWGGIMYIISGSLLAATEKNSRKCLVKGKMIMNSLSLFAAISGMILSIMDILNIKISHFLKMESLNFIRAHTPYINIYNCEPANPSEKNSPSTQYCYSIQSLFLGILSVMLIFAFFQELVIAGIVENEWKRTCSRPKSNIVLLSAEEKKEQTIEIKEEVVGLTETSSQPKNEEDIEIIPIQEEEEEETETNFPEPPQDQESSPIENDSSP
Method: After incubation, the cells were washed and stained with PE-mouse anti-human CD20 and enumerated by flow cytometry.

[21] = target: T4, human serum albumin (HSA) (human, UniProt P02768 25-609); assay: SPR (Biacore) of antibody variable-region peptides with full HSA
T4 construct: also called full HSA protein

“ABRAXANE® (albumin-bound paclitaxel nanoparticles) (from UniProt P02768 25-609)” showed a % cells in the CD20+ gate after pre-treatment [1] of 82.9% and a % cells in the CD20+ gate after pre-treatment [2] of 82.9%.

“AR160 (rituximab-albumin-paclitaxel nanoparticle complex) (from UniProt P02768 25-609)” was tested, and the % cells in the CD20+ gate after pre-treatment [3] was 6.6%, the % of cells in the AR160+ CD19+ quadrant [4] was 15.8% and the % cells in the CD20+ gate after pre-treatment [5] was 8.2%. For the same molecule, the % of cells in the AR160+ CD19+ quadrant [6] was 73.8%, the % cells in the CD20+ gate after pre-treatment [7] was 6.6% and the % positive cells [8] was 75%. It also gave a % of cells in the AR160+ CD19- quadrant [9] of 3.95%.

With “Bev Peptide 1: bevacizumab peptide, amino acids 111-125, SEQ ID NO.: 7 (DTAVYYCAKYPHYYGSSHWYF)” the “effect on particle size increase indicative of antibody complexation with ABX” value [10] was “prevent the 30 nm increase in particle size”.

With “HSA peptide 40: HSA amino acids 455-472, SEQ ID NO.: 5; maps to the Sudlow II site” the “binding to the antibodies” value [11] was “found to bind the antibodies” and the “effect on particle size increase indicative of antibody complexation with ABX” value [10] was “prevent the 30 nm increase in particle size”.

bevacizumab was tested, and the “binding affinity to ABX” value [12] was “bind with a high affinity”.

Molecule isotype control antibody has a % positive cells [13] of 6.2% and a % cells in the CD20+ gate [14] of 6.2%.

With muromonab the “binding to HSA peptide 40” value [15] was “bound” and the “binding to HSA peptide 4” value [16] was “bound”.

With “muromonab peptide: peptide from muromonab corresponding to the albumin-binding region; probably SEQ ID NO.: 12 (DDHYCLDYWGQGTTLTVSSA)” the “binding to the full HSA protein” value [17] was “did not bind”.

rituximab was tested, and the “toxicity to Daudi cells” value [18] was “not toxic”, the median survival ([19]; RIT 12 mg/kg) was 8 days and the “mice having responses by day 10” value ([19]; RIT 12 mg/kg) was 0%. The “percentage of mice alive at day 10” value ([19]; RIT 12 mg/kg) was 12%, the median survival ([19]; RIT 18 mg/kg) was 10.5 days and the “mice having responses by day 10” value ([19]; RIT 18 mg/kg) was 0%. For the same molecule, the “percentage of mice alive at day 10” value ([19]; RIT 18 mg/kg) was 38%, the “binding affinity to ABX” value [12] was “bind with a high affinity” and the “dissociation constant for ABX” value [12] was “in the picomolar range”. For the same molecule, the “inhibition of subsequent binding of anti-human CD20 antibody” value [20] was “prohibit subsequent binding of the anti-human CD20 antibody”.

B1: muromonab peptide (peptide)
peptide: DDHYCLDYWGQGTTLTVSSA
B1: no binding [21].
